Data from article PMC9482650, “Quantitative fragmentomics allow affinity mapping of interactomes” (Nature Communications, 2022).

T1: SNTG1, Q9NSN8
T1 sequence (Q9NSN8 52-150, limits assumed, looked up): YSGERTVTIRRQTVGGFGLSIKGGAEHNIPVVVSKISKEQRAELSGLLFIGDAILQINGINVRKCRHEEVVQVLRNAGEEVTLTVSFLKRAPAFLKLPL

T2: GRIP1_5, Q9Y3R0
T2 sequence (Q9Y3R0 568-668, limits assumed, looked up): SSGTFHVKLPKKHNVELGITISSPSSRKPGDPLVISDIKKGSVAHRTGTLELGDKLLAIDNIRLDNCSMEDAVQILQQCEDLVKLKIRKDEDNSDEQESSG

T3: PDZRN3_1, Q9UPQ7
T3 sequence (Q9UPQ7 244-349, limits assumed, looked up): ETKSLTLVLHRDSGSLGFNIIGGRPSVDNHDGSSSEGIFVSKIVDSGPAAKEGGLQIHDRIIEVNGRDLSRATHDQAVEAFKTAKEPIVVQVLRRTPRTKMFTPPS

T4: NHERF3_4, Q5T2W1
T4 sequence (Q5T2W1 373-468, limits assumed, looked up): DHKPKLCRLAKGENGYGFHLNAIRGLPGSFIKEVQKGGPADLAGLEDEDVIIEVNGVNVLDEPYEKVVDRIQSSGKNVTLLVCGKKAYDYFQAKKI

T5: MPDZ_12, O75970
T5 sequence (O75970 1857-1958, limits assumed, looked up): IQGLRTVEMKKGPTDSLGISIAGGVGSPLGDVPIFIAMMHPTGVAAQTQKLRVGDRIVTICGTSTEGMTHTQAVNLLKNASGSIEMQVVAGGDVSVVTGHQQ

T6: LNX2_2, Q8N448
T6 sequence (Q8N448 334-432, limits assumed, looked up): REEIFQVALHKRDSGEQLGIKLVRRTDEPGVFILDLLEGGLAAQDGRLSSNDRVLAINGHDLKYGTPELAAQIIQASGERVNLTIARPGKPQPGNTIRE

T7: TIAM2, Q8IVF5
T7 sequence (Q8IVF5 885-986, limits assumed, looked up): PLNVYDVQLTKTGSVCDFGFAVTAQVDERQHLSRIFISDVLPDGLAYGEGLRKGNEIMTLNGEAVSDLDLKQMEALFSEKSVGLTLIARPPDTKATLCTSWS

T8: TX1BP3, O14907
T8 sequence (O14907 10-122, limits assumed, looked up): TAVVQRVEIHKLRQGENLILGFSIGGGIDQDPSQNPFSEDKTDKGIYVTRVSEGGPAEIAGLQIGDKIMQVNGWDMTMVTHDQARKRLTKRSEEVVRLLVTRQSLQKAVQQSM

T9: SNTG2, Q9NY99
T9 sequence (Q9NY99 68-166, limits assumed, looked up): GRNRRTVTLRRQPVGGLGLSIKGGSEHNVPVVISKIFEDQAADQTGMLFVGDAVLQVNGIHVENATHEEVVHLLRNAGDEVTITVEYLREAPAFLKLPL

T10: SYNJ2BP, P57105
T10 sequence (P57105 8-110, limits assumed, looked up): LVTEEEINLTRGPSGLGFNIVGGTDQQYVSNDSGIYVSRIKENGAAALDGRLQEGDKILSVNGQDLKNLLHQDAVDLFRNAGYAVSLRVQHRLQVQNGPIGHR


Assays:
Assay in all cases: holdup assay
Parameters in all cases: key: below the threshold = too weak to quantify, mostly under pKd 3.1 to 4
Conditions in all cases: plain residues with an end cap or a label only (N-terminal biotin on a linker: ttds)
[1] = biological target: T1, SNTG1, Q9NSN8
[2] = biological target: MAGI2_2, Q86UL8
Sequence of MAGI2_2, Q86UL8 (Q86UL8 410-522): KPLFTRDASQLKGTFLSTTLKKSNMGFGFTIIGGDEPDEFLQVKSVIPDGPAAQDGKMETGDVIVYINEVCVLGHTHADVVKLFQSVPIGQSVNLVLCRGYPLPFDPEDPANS

[3] = biological target: T2, GRIP1_5, Q9Y3R0
[4] = biological target: MAGI3_2, Q5TCQ9
Sequence of MAGI3_2, Q5TCQ9 (Q5TCQ9 398-503): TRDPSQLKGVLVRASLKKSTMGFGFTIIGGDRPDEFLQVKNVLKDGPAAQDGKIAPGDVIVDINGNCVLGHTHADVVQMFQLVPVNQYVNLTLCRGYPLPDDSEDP

[5] = biological target: T3, PDZRN3_1, Q9UPQ7
[6] = biological target: PARD3_3, Q8TEW0
Sequence of PARD3_3, Q8TEW0 (Q8TEW0 582-685): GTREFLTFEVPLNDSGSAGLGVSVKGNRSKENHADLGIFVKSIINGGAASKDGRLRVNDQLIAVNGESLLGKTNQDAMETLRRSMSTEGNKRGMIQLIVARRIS

[7] = biological target: LDB3, O75112
Sequence of LDB3, O75112 (O75112 1-94): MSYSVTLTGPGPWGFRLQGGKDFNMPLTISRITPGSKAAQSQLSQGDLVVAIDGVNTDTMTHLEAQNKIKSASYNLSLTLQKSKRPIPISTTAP

[8] = biological target: NOS1, P29475
Sequence of NOS1, P29475 (P29475 9-101): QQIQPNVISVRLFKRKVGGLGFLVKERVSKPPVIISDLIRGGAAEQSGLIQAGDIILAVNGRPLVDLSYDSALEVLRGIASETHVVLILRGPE

[9] = biological target: GRID2IP_2, A4D2P6
Sequence of GRID2IP_2, A4D2P6 (A4D2P6 272-370): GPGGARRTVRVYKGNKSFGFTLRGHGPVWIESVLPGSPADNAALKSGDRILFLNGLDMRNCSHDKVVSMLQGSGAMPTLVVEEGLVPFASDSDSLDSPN

[10] = biological target: T4, NHERF3_4, Q5T2W1
[11] = biological target: SNX27, Q96L92
[12] = biological target: T5, MPDZ_12, O75970
[13] = biological target: T6, LNX2_2, Q8N448
[14] = biological target: GRID2IP_1, A4D2P6
Sequence of GRID2IP_1, A4D2P6 (A4D2P6 1-87): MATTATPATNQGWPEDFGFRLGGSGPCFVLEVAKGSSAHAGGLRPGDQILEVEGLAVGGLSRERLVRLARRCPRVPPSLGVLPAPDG

[15] = biological target: FRMPD2_1, Q68DX3
Sequence of FRMPD2_1, Q68DX3 (Q68DX3 770-861): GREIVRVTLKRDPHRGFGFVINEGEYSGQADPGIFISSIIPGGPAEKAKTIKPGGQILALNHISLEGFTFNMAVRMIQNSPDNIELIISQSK

[16] = biological target: MAGI2_5, Q86UL8
Sequence of MAGI2_5, Q86UL8 (Q86UL8 915-1017): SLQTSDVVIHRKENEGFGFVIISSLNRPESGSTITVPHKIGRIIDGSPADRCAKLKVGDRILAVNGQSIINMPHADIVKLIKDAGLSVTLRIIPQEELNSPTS

[17] = biological target: T7, TIAM2, Q8IVF5
[18] = biological target: T8, TX1BP3, O14907
[19] = biological target: MAGI2_3, Q86UL8
Sequence of MAGI2_3, Q86UL8 (Q86UL8 600-682): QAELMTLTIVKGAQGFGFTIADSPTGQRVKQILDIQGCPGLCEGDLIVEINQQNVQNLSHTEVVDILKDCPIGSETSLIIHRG

[20] = biological target: DLG5_1, Q8TDM6
Sequence of DLG5_1, Q8TDM6 (Q8TDM6 617-713): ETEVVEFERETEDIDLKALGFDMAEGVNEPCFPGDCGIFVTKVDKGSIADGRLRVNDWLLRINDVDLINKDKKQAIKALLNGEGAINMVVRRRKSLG

[21] = biological target: SCRIB_2, Q14160
Sequence of SCRIB_2, Q14160 (Q14160 857-960): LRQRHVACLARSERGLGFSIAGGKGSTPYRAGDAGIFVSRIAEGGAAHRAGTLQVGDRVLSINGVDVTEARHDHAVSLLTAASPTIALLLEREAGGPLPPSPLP

[22] = biological target: IL16_1, Q14005
Sequence of IL16_1, Q14005 (Q14005 210-306): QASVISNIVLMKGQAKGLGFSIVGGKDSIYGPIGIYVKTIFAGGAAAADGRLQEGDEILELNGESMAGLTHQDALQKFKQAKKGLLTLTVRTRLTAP

[23] = biological target: DLG4_2, P78352
Sequence of DLG4_2, P78352 (P78352 155-259): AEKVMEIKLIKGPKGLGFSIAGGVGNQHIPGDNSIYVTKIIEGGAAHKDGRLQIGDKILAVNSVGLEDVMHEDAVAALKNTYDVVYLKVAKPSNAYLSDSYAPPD

[24] = biological target: T9, SNTG2, Q9NY99
[25] = biological target: DLG4_3, P78352
Sequence of DLG4_3, P78352 (P78352 306-403): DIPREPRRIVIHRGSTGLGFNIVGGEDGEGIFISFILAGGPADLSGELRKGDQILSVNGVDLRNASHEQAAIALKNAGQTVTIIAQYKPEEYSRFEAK

[26] = biological target: T10, SYNJ2BP, P57105
[27] = biological target: FRMPD2_2, Q68DX3
Sequence of FRMPD2_2, Q68DX3 (Q68DX3 944-1038): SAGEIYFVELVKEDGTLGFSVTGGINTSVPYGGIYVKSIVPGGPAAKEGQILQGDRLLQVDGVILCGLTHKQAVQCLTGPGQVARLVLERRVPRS

[28] = biological target: TJP1_2, Q07157
Sequence of TJP1_2, Q07157 (Q07157 181-274): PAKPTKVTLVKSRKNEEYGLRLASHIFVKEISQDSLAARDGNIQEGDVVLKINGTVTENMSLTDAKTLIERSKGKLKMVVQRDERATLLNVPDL

Binder | pKd [1] | pKd [2] | pKd [3] | pKd [4] | pKd [5] | pKd [6] | pKd [7] | pKd [8] | pKd [9] | pKd [10] | pKd [11] | pKd [12] | pKd [13] | pKd [14] | pKd [15] | pKd [16] | pKd [17] | pKd [18] | pKd [19] | pKd [20] | also measured
KKYVDAETSL [SLC4A7, Q9Y6M7] | 3.82 | 3.77 | 3.53 | below the threshold | 4.57 | 3.62 | below the threshold | 3.58 | 4.02 | below the threshold | 5.71 | below the threshold | below the threshold | below the threshold | below the threshold | 3.52 | below the threshold | 3.82 | below the threshold | below the threshold | pKd [21]: 3.77; pKd [22]: below the threshold; pKd [23]: below the threshold; pKd [24]: 4.33; pKd [25]: 3.59; pKd [26]: 4.28; pKd [27]: below the threshold; pKd [28]: below the threshold
RLPKIKETTV [FRMPD4, Q14CM0] | 5.02 | 4.73 | below the threshold | 5.27 | 4.47 | below the threshold | below the threshold | below the threshold | 3.74 | below the threshold | 5.73 | below the threshold | 4.47 | below the threshold | below the threshold | 3.9 | below the threshold | 4.57 | 4.05 | below the threshold | pKd [21]: 4.61; pKd [22]: 4.07; pKd [23]: 5.6; pKd [24]: 5.3; pKd [25]: 5.25; pKd [26]: 5.47; pKd [27]: below the threshold; pKd [28]: below the threshold
DKDPHSETAL [TMIGD1, Q6UXZ0] | 4.1 | 3.63 | below the threshold | 4.19 | 4.64 | 3.74 | below the threshold | 3.86 | below the threshold | 3.52 | 5.49 | below the threshold | below the threshold | below the threshold | below the threshold | 3.67 | below the threshold | 4.03 | 3.52 | below the threshold | pKd [21]: 4.23; pKd [22]: below the threshold; pKd [23]: 3.78; pKd [24]: 4.06; pKd [25]: below the threshold; pKd [26]: 4.42; pKd [27]: below the threshold; pKd [28]: below the threshold
RHTTSTETAV [HPV30-E6, P36809] | 4.94 | 5.04 | below the threshold | 5.36 | 4.68 | below the threshold | below the threshold | 4.63 | below the threshold | below the threshold | 5.64 | below the threshold | 3.77 | below the threshold | 4.14 | 4.31 | below the threshold | 4.65 | 4.57 | below the threshold | pKd [21]: 5.11; pKd [22]: 4.08; pKd [23]: 5.45; pKd [24]: 4.67; pKd [25]: 4.35; pKd [26]: 5.36; pKd [27]: 4.23; pKd [28]: below the threshold
SSLQSLETSV [ATP2B4, P23634] | 5.08 | 4.49 | below the threshold | 4.79 | 5.15 | 3.87 | below the threshold | 4.04 | below the threshold | 3.63 | 5.7 | 3.53 | 4.01 | below the threshold | 4.17 | 4.6 | below the threshold | 4.62 | 4.2 | below the threshold | pKd [21]: 4.9; pKd [22]: 4.7; pKd [23]: 5.18; pKd [24]: 4.89; pKd [25]: 4.65; pKd [26]: 5.66; pKd [27]: 4.64; pKd [28]: below the threshold
RLQRRRETQV [HPV18-E6, P06463] | 3.93 | 5.16 | below the threshold | 5.56 | 4.82 | below the threshold | below the threshold | 3.71 | below the threshold | below the threshold | 4.55 | below the threshold | 3.17 | below the threshold | 4.1 | 3.78 | below the threshold | 4.67 | 4.15 | below the threshold | pKd [21]: 4.44; pKd [22]: below the threshold; pKd [23]: 5.46; pKd [24]: 4.03; pKd [25]: 5.74; pKd [26]: 5.35; pKd [27]: below the threshold; pKd [28]: below the threshold
